Patent US20120196307

Legend:
[1] = biological target: synaptotagmin-1, intact 65 kDa protein (rat) (UniProt P21707)
[2] = test system: GST-CRMP2 recombinant protein (Kinasource, cat# SU-040) [GST: P08515]
[3] = test system: GST-synaptotagmin recombinant protein [GST: P08515]
[4] = biological target: collapsin response mediator protein-2, intact (rat) (UniProt P47942)

Chain of synaptotagmin-1, intact 65 kDa protein (rat) (P21707 whole entry): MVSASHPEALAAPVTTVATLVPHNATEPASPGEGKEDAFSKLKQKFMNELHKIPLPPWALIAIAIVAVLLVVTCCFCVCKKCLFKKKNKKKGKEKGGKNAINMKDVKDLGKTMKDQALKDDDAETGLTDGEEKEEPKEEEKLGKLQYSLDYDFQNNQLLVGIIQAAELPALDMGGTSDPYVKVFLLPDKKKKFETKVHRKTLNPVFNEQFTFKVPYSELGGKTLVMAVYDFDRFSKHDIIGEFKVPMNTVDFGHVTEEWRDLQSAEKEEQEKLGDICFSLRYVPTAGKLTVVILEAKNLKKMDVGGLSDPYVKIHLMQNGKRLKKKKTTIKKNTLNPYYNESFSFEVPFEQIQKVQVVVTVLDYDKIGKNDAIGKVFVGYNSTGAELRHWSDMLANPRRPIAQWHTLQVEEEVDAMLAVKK
Chain of GST-CRMP2 recombinant protein (Kinasource, cat# SU-040) [GST: P08515] (P08515 whole entry, looked up): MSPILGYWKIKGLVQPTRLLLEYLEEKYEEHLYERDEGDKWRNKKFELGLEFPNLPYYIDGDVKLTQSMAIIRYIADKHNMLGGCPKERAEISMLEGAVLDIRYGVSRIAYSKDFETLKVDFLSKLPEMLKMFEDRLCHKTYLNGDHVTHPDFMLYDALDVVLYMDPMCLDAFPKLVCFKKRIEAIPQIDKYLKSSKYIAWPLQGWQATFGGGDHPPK
Chain of GST-synaptotagmin recombinant protein [GST: P08515] (P08515 whole entry, looked up): as above

Substance	in vitro protease digestion, Western blot [1]	in vitro digestion of the purified protein, Coomassie and Western blot [2]	in vitro digestion of the recombinant protein, Western blot [3]	in vitro protease digestion of naive brain lysate, Western blot [4]
MMP-2	Overall, Syt1 was relatively resistant to these proteases and under no conditions was the TBI-associated characteristic BDP-33k detected (results not shown).	–	–	–
MMP-9	Overall, Syt1 was relatively resistant to these proteases and under no conditions was the TBI-associated characteristic BDP-33k detected (results not shown).	–	–	–
calpain (purified; isoform not named where the result is told)	–	purified GST-CRMP-2 protein digested by calpain. The obtained cleavage fragments were used to determine the calpain cleavage site.	The recombinant synaptotagmin was cleaved in vitro to a 21 kDa BDP as detected with anti-GST.	in vitro calpain treatment of naive brain lysate resulted in the same fragmentation pattern observed after TBI in vivo, with the 62 kDa and 66 kDa intact CRMP-2 bands disappearing
cathepsin B	Overall, Syt1 was relatively resistant to these proteases and under no conditions was the TBI-associated characteristic BDP-33k detected (results not shown).	–	–	–
cathepsin D	Overall, Syt1 was relatively resistant to these proteases and under no conditions was the TBI-associated characteristic BDP-33k detected (results not shown).	–	–	–
